Measurements taken from patent US20100068208A1, “Degranulation inhibitor” (priority 2005, published 2010).
Where no end group is shown, it is not given here.

T1: TGR12-GFP (fused protein of human TGR12 and GFP, encoded by the DNA of SEQ ID NO: 31), stably expressed on … (human, UniProt Q96LB1 1-330)
T1 sequence: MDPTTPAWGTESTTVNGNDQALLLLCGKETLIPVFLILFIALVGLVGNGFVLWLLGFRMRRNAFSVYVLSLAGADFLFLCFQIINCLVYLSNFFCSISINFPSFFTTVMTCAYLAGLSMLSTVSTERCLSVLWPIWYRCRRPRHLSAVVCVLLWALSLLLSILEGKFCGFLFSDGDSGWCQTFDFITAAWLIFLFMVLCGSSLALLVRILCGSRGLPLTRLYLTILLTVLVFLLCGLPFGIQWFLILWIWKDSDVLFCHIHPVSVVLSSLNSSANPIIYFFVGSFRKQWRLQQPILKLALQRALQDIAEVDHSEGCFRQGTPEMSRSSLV

T2: human TGR12 (untagged) (human, UniProt Q96LB1 1-330)
T2 sequence: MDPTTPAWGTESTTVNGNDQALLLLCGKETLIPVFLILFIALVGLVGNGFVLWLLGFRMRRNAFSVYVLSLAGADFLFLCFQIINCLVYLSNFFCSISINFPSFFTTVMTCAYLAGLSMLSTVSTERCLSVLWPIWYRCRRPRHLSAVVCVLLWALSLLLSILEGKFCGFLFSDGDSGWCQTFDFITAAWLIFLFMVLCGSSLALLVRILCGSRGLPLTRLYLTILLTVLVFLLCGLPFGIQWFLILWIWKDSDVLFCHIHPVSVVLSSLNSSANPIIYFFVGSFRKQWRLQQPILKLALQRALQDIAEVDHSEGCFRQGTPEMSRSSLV

T3: TGR12-GFP (fused protein of human TGR12 and GFP, encoded by the DNA of SEQ ID NO: 45), stably expressed on … (human, UniProt Q96LB1 1-330)
T3 construct: also called TGR12-GFP expression CHO cell line; not shown: GFP (Wako Pure Chemical) fused after the C-terminus of TGR12
T3 sequence: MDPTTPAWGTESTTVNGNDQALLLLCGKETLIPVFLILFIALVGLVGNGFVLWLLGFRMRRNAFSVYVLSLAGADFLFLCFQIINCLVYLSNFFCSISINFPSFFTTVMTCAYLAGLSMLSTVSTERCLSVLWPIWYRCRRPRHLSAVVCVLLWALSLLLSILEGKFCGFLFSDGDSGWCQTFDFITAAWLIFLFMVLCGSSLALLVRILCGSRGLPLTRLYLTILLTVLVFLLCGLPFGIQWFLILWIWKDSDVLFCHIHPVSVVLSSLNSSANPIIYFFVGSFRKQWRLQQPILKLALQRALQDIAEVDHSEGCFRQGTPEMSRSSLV


How the values were obtained:
[1] = target: T1, TGR12-GFP (fused protein of human TGR12 …); assay: cell-based or functional assay
human TGR12 (untagged) = target: T2, human TGR12 (untagged); assay: cell-based or functional assay
[2] = target: T3, TGR12-GFP (fused protein of human TGR12 …); assay: competition with 200 pM [125I]-rCST14 (Y0) on CHO-TGR12GFP cells, Hill plot
Procedure: The binding assay using CHO-TGR12GFP was performed as follows. […] After incubation overnight, the cells were washed 3 times with ice-chilled assay buffer (MEM-α, 20 mM HEPES (pH 7.4), 0.05% BSA) and 250 μL of the assay buffer was added thereto. […] After washing 3 times with 500 μL of the assay buffer, the cells were lysed in 250 μL of 0.5N NaOH and the lysate was recovered for measurement of the radioactivity.
Based on the above, non-specific binding was estimated as the activity of 10 μM rat cortistatin-14 and the IC₅₀ value of each peptide was obtained from Hill plot analysis.

Row | EC50 in the calcium increasing effect on CHO-TGR12 [1] [nM] | maximum activity in the calcium increasing effect (FLIPR), CHO-TGR12, at 0.3 nM [1] [fluorescence intensity] | maximum activity in the calcium increasing effect (FLIPR), CHO-TGR12, at 3 nM [1] [fluorescence intensity] | maximum activity in the calcium increasing effect (FLIPR), CHO-TGR12, at 30 nM [1] [fluorescence intensity] | maximum activity in the calcium increasing effect (FLIPR), CHO-TGR12, at 300 nM [1] [fluorescence intensity] | maximum activity in the calcium increasing effect (FLIPR), CHO-TGR12, at 3000 nM [1] [fluorescence intensity] | EC50 in the degranulation on LAD 2 (human TGR12 (untagged)) [nM] | degranulation of LAD 2 (beta-hexosaminidase release, % of total) at 10 nM (human TGR12 (untagged)) [%] | degranulation of LAD 2 (beta-hexosaminidase release, % of total) at 30 nM (human TGR12 (untagged)) [%] | degranulation of LAD 2 (beta-hexosaminidase release, % of total) at 100 nM (human TGR12 (untagged)) [%] | degranulation of LAD 2 (beta-hexosaminidase release, % of total) at 300 nM (human TGR12 (untagged)) [%] | degranulation of LAD 2 (beta-hexosaminidase release, % of total) at 1 µM (human TGR12 (untagged)) [%] | degranulation of LAD 2 (beta-hexosaminidase release, % of total) at 3 µM (human TGR12 (untagged)) [%] | IC50 [2] [nM] | maximum activity in the calcium increasing effect (FLIPR), RBL2H3-TGR12, at 1 nM (human TGR12 (untagged)) [fluorescence intensity] | maximum activity in the calcium increasing effect (FLIPR), RBL2H3-TGR12, at 10 nM (human TGR12 (untagged)) [fluorescence intensity] | maximum activity in the calcium increasing effect (FLIPR), RBL2H3-TGR12, at 100 nM (human TGR12 (untagged)) [fluorescence intensity] | maximum activity in the calcium increasing effect (FLIPR), RBL2H3-TGR12, at 1 µM (human TGR12 (untagged)) [fluorescence intensity] | maximum activity in the calcium increasing effect (FLIPR), RBL2H3-TGR12, at 10 µM (human TGR12 (untagged)) [fluorescence intensity] | Binder
1 | ~161 | 287 | 410 | 195 | 23000 | 23300 | ~51 | 7.4 | 24.8 | 49.4 | 65.8 | 68.9 | 63.3 | 47 |  |  |  |  |  | HSDGIFTDSYSRYRKQMAVKKYLAAVLGKRYKQRVKNK (peptide, UniProt P18509 132-169, looked up, not fully specified; ends and bridges not checked, domain: PACAP-38) [human PACAP38 (pituitary adenylate cyclase activating polypeptide 38)]
2 | ~93 | 48 | 58 | 939 | 23000 | 23700 | ~51 | 2.6 | 19.6 | 59.4 | 71.1 |  | 69.1 | 264 | 40 | 29 | 5300 | 11500 | 12700 | HSDGIFTDSYSRYRKQMAVKKYLAAVL (peptide, UniProt P18509 132-158, looked up, not fully specified; ends and bridges not checked, domain: PACAP-27) [human PACAP27 (pituitary adenylate cyclase activating polypeptide 27)]
